Test results taken from patent US20250340902A1, “GENE THERAPY FOR BVES-RELATED DISORDERS” (OHIO STATE INNOVATION FOUNDATION, priority 2022, published 2025).

Assays:
Test in all cases: anti-HA co-IP from muscle, MS; CTRL 0
[1] = target: 60S ribosomal protein L15 (Mus musculus) (UniProt Q9CZM2)
[2] = target: ATP-binding cassette sub-family F member 1 (Mus musculus) (UniProt Q6P542)
[3] = target: Alanine--tRNA ligase, cytoplasmic (Mus musculus) (UniProt Q8BGQ7)
Ankyrin-2 (Mus musculus) = Ankyrin-2 (Mus musculus) (UniProt Q8C8R3)
[4] = target: Anoctamin-5 (Mus musculus) (UniProt Q75UR0)
[5] = target: Bifunctional purine biosynthesis protein ATIC (Mus musculus) (UniProt Q9CWJ9)
[6] = target: CDP-diacylglycerol--inositol 3-phosphatidyltransferase (Mus musculus) (UniProt Q8VDP6)
[7] = target: Calcium/calmodulin-dependent protein kinase type II subunit gamma (Mus musculus) (UniProt Q923T9)
[8] = target: Chromatin-remodeling ATPase INO80 (Mus musculus) (UniProt Q6ZPV2)
[9] = target: Coatomer subunit epsilon (Mus musculus) (UniProt O89079)
Cullin-2 (Mus musculus) = Cullin-2 (Mus musculus) (UniProt Q9D4H8)
[10] = target: DNA replication licensing factor MCM2 (Mus musculus) (UniProt P97310)
[11] = target: Dystroglycan (Mus musculus) (UniProt Q62165)
[12] = target: E3 ubiquitin-protein ligase UBR4 (Mus musculus) (UniProt A2AN08)
[13] = target: EH domain-containing protein 2 (Mus musculus) (UniProt Q8BH64)
Emerin (Mus musculus) = Emerin (Mus musculus) (UniProt O08579)
[14] = target: LEM domain-containing protein 2 (Mus musculus) (UniProt Q6DVA0)
[15] = target: Leucine-rich PPR motif-containing protein, mitochondrial (Mus musculus) (UniProt Q6PB66)
[16] = target: MAP7 domain-containing protein 1 (Mus musculus) (UniProt A2AJI0)
[17] = target: NADH dehydrogenase [ubiquinone] flavoprotein 1, mitochondrial (Mus musculus) (UniProt Q91YT0)
[18] = target: NADH dehydrogenase [ubiquinone] iron-sulfur protein 6, mitochondrial (Mus musculus) (UniProt P52503)
[19] = target: NEDD8-conjugating enzyme Ubc12 (Mus musculus) (UniProt P61082)
Nesprin-2 (Mus musculus) = Nesprin-2 (Mus musculus) (UniProt Q6ZWQ0)
[20] = target: Nucleolar protein of 40 kDa (Mus musculus) (UniProt Q9ESX4)
Sarcospan (Mus musculus) = Sarcospan (Mus musculus) (UniProt Q62147)
[21] = target: Serine-threonine kinase receptor-associated protein (Mus musculus) (UniProt Q9Z1Z2)
[22] = target: Sodium channel protein type 4 subunit alpha (Mus musculus) (UniProt Q9ER60)
[23] = target: Sodium/calcium exchanger 1 (Mus musculus) (UniProt P70414)
[24] = target: Sodium/calcium exchanger 3 (Mus musculus) (UniProt S4R2P9)
[25] = target: Sodium/potassium-transporting ATPase subunit alpha-1 (Mus musculus) (UniProt Q8VDN2)
[26] = target: Solute carrier family 12 member 1 (Mus musculus) (UniProt P55014)
[27] = target: Sorting and assembly machinery component 50 homolog (Mus musculus) (UniProt Q8BGH2)
Talin-2 (Mus musculus) = Talin-2 (Mus musculus) (UniProt Q71LX4)
[28] = target: Transcriptional regulator ATRX (Mus musculus) (UniProt Q61687)
[29] = target: Translocation protein SEC62 (Mus musculus) (UniProt Q8BU14)
[30] = target: Transmembrane protein 201 (Mus musculus) (UniProt A2A8U2)
[31] = target: U2 small nuclear ribonucleoprotein B″ (Mus musculus) (UniProt Q9CQI7)
[32] = target: mRNA turnover protein 4 homolog (Mus musculus) (UniProt Q9D0I8)

Measured: AAV9-BVES-HA (IP-MS count)

human BVES fused with 3xHA tag, sequence (Q8NE79 other isoform, or with tags, fused parts or gaps limits assumed): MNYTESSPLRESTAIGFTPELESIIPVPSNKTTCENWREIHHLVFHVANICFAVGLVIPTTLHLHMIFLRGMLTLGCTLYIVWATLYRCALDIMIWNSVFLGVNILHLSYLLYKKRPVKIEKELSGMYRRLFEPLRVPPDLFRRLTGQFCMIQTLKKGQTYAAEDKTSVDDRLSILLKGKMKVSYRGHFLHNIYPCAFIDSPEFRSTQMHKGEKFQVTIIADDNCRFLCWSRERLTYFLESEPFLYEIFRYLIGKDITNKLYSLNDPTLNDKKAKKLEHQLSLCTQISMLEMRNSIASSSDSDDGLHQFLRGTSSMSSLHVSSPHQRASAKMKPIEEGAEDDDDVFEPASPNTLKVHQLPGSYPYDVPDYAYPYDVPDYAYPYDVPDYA
Calcium/calmodulin-dependent protein kinase type II subunit gamma (Mus musculus), sequence (Q923T9 whole entry): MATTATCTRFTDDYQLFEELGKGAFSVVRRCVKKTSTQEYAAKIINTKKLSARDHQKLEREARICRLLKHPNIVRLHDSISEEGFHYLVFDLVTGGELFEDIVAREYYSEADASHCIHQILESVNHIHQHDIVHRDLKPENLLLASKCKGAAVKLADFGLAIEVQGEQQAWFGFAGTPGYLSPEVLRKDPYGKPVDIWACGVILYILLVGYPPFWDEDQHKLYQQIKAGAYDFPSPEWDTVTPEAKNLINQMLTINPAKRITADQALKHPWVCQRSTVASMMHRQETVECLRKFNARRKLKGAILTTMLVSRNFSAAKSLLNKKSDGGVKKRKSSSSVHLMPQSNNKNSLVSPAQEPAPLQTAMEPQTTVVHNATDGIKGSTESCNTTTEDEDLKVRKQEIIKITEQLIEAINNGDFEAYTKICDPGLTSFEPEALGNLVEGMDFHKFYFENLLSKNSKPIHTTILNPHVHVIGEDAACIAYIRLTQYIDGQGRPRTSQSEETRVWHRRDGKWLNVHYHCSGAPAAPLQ
Cullin-2 (Mus musculus), sequence (Q9D4H8 whole entry): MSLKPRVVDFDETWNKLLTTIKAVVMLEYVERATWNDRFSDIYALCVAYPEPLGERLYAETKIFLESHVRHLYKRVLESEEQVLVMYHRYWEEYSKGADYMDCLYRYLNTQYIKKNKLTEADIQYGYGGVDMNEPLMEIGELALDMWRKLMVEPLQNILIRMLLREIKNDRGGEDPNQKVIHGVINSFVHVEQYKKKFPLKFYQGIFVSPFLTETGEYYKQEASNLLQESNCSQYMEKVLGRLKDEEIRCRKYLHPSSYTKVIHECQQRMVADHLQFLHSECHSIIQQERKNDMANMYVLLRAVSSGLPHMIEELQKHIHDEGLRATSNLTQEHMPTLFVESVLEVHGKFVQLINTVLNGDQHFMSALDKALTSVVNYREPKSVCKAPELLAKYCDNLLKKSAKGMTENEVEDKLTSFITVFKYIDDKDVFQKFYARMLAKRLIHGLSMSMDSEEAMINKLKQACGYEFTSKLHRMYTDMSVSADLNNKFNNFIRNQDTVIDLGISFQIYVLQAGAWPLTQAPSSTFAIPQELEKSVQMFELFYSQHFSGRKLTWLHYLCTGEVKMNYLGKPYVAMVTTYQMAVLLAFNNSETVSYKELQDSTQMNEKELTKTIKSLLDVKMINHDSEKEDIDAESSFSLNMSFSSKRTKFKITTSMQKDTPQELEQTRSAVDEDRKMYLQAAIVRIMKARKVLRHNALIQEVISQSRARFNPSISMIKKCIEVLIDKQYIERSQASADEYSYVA
LEM domain-containing protein 2 (Mus musculus), sequence (Q6DVA0 2-511 limits assumed): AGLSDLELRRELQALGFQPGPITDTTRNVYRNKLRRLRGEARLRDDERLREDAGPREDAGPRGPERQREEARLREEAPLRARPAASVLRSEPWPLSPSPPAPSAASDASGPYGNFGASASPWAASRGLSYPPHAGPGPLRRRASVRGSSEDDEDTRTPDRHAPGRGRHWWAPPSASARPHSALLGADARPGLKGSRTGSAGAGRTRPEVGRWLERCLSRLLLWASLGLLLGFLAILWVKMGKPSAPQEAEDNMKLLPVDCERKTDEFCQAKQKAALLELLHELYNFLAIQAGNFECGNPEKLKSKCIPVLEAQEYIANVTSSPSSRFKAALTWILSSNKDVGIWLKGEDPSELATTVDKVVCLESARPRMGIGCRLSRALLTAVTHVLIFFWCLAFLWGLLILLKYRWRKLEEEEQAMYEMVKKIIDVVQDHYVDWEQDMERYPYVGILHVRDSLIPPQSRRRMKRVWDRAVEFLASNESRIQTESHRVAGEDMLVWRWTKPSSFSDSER
Nucleolar protein of 40 kDa (Mus musculus), sequence (Q9ESX4 whole entry): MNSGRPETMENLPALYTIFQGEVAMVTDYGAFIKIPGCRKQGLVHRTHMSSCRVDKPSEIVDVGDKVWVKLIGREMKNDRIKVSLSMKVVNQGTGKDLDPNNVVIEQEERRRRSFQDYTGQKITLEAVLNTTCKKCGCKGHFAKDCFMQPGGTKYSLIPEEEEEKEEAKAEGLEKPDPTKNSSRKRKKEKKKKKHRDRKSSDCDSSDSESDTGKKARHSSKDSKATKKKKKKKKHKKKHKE
Alanine--tRNA ligase, cytoplasmic (Mus musculus), sequence (Q8BGQ7 whole entry): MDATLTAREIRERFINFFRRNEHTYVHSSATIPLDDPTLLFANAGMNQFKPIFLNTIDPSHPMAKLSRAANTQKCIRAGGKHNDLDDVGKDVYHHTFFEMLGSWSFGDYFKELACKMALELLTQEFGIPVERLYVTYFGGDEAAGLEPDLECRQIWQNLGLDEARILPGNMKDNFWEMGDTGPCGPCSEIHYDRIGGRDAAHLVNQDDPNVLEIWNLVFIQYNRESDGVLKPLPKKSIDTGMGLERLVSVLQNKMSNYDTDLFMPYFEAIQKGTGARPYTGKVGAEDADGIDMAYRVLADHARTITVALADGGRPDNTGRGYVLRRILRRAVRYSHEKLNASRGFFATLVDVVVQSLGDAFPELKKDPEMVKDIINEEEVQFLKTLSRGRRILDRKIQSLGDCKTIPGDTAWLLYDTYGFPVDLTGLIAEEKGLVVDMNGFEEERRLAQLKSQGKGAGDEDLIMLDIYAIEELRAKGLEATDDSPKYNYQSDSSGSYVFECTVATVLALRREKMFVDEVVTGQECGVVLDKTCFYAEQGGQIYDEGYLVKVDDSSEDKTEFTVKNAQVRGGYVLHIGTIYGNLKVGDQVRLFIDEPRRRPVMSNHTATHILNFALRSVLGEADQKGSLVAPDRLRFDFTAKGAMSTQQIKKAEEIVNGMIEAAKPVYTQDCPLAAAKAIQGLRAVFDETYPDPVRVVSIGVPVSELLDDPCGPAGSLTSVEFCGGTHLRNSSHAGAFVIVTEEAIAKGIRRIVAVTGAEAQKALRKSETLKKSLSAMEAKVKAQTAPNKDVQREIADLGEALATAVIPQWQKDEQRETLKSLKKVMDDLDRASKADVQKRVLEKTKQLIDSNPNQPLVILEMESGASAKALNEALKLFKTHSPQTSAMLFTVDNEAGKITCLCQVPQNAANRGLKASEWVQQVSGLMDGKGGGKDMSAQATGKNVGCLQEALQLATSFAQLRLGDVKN
Coatomer subunit epsilon (Mus musculus), sequence (O89079 whole entry): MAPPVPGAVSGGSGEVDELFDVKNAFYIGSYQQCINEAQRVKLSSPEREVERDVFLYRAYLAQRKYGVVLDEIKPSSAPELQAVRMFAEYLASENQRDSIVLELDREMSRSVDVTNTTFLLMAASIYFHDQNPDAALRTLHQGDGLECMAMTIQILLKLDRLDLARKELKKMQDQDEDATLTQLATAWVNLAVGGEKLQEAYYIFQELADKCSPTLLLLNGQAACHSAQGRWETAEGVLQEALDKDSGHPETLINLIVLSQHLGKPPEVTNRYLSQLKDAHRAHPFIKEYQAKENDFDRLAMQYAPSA
Translocation protein SEC62 (Mus musculus), sequence (Q8BU14 whole entry): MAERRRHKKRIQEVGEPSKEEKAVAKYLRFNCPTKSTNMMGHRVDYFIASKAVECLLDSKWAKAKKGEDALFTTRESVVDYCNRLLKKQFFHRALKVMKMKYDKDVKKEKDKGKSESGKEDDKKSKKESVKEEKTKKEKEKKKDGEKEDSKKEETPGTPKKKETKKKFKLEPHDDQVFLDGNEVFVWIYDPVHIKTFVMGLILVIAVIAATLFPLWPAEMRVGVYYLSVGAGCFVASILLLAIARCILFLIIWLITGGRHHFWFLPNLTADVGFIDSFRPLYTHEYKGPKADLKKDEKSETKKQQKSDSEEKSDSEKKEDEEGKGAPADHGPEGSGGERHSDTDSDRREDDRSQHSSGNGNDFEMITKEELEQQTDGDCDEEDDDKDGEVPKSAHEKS
Sodium/calcium exchanger 1 (Mus musculus), sequence (P70414 33-970 limits assumed): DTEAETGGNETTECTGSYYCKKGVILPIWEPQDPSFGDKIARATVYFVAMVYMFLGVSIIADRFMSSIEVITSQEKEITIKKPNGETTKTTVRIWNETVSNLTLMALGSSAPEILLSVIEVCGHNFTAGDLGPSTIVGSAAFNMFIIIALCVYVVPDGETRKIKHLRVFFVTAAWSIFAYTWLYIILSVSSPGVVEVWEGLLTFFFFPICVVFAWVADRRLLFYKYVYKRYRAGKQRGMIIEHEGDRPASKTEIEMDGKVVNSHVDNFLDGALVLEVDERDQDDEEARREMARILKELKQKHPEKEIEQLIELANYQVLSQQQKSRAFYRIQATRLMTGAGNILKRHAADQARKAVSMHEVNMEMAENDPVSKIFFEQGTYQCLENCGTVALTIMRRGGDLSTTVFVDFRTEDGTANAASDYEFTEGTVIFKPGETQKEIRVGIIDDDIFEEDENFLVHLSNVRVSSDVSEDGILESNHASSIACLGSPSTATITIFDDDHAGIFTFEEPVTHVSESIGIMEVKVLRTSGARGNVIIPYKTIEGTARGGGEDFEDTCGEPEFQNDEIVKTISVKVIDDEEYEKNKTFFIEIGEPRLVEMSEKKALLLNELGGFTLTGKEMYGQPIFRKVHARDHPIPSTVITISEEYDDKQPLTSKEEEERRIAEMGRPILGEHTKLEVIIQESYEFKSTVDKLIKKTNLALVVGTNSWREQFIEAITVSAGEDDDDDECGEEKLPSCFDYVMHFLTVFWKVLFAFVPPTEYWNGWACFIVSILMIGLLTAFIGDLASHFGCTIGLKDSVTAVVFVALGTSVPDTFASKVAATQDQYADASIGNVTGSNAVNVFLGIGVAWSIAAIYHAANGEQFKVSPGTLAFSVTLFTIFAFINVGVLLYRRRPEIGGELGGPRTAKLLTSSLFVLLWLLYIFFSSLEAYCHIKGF

human BVES fused with 3xHA tag (from UniProt Q8NE79 1-360)
8: [15]
19: [22]
5: [27]
6: [13] | Emerin (Mus musculus) | [28]
36: Ankyrin-2 (Mus musculus)
3: [5] | Cullin-2 (Mus musculus) | [17] | [24] | Talin-2 (Mus musculus)
4: [1] | [2] | [3] | [10] | [11] | [12]
12: [25]
13: [7]
2: all other assays above
